Data published in patent US20060058231A1 (Xencor, published 2006).
Positions count from the first letter of the chain named. In names and notes the source's numbering stands.

T1: BMPRII receptor-Fc fusion (UniProt Q13873 27-151, limits assumed)
T1 construct: BMP receptor-Fc fusion, detected with anti-human IgG-HRP
T1 sequence (looked up): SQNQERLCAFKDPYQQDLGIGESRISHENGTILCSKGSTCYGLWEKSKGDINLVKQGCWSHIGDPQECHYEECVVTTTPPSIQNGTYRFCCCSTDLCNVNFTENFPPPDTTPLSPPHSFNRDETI

T2: BMPRIb receptor-Fc fusion (UniProt O00238 14-126)
T2 construct: BMP receptor-Fc fusion, detected with anti-human IgG-HRP; also called ALK-6
T2 sequence (looked up): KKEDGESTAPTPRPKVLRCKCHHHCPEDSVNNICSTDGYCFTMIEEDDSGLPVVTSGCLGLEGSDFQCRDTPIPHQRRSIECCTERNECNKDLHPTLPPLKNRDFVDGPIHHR

T3: BMPRIb Fc fusion (R&D Systems) (UniProt O00238 14-126)
T3 construct: Bought receptor/Fc fusion; also called ALK-6; not shown: Fc part of the bought fusion
T3 sequence (looked up): T2 sequence (looked up)

T4: BMPRII Fc fusion (R&D Systems) (UniProt Q13873 27-151, limits assumed)
T4 construct: Bought receptor/Fc fusion; not shown: Fc part of the bought fusion
T4 sequence (looked up): T1 sequence (looked up)

T5: noggin Fc fusion (R&D Systems) (UniProt Q13253 28-232, limits assumed)
T5 construct: Bought noggin/Fc fusion; not shown: Fc part of the bought fusion
T5 sequence (looked up): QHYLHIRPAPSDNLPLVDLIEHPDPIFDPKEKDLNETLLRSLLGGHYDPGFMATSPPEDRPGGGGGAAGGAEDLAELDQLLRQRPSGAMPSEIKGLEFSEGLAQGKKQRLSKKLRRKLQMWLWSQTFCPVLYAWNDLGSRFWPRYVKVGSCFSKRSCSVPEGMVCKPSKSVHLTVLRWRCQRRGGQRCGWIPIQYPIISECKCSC

T6: BMPRII receptor-Fc fusion (UniProt Q13873 27-151, limits assumed)
T6 construct: BMP receptor-Fc fusion used at 5 ug/mL
T6 sequence (looked up): T1 sequence (looked up)

T7: BMPRIb receptor-Fc fusion (UniProt O00238 14-126)
T7 construct: BMP receptor-Fc fusion used at 5 ug/mL; also called ALK-6
T7 sequence (looked up): T2 sequence (looked up)

B1: BMP-7 variant K39T (ligand)
chain: STGGKQRSQNRSKTPKNQEALRMASVAENSSSDQRQACTKHELYVSFRDLGWQDWIIAPEGYAAYYCEGECAFPLNSYMNATNHAIVQTLVHFINPETVPKPCCAPTQLNAISVLYFDDSSNVILKKYRNMVVRACGCH
B2: BMP-7 variant R134S (ligand)
chain: B1 chain with T39K, R134S
B3: BMP-7 variant K39D (ligand)
chain: B1 chain with T39D
B4: BMP-7 variant S77T (ligand)
chain: B1 chain with T39K, S77T
B5: BMP-7 variant S77P (ligand)
chain: B1 chain with T39K, S77P
B6: BMP-7 variant R134L (ligand)
chain: B1 chain with T39K, R134L
B7: BMP-7 variant R134P (ligand)
chain: B1 chain with T39K, R134P
B8: BMP-7 variant E60S (ligand)
chain: B1 chain with T39K, E60S
B9: BMP-7 variant Q53A (ligand)
chain: B1 chain with T39K, Q53A
B10: BMP-7 variant K126G (ligand)
chain: B1 chain with T39K, K126G
B11: wild type human BMP-7 (R&D Systems) (ligand)
chain: B1 chain with T39K
notes: Bought recombinant protein; It describes BMPs as dimers; also called wt; recombinant human BMP-7
B12: BMP-7 variant 504 (Y65N/S120D) (ligand)
chain: B1 chain with T39K, Y65N, S120D
notes: Expressed from the full-length Image clone and processed to the mature dimer; Purified from conditioned media on SP-sepharose; also called v504
B13: BMP-7 variant 565 (Y65N/F93T/R129D) (ligand)
chain: B1 chain with T39K, Y65N, F93T, R129D
notes: Expressed from the full-length Image clone and processed to the mature dimer; Purified from conditioned media on SP-sepharose; also called v565
B14: BMP-7 variant 526 (K39S/S120D/R134E) (ligand)
chain: B1 chain with T39S, S120D, R134E
notes: Expressed from the full-length Image clone and processed to the mature dimer; Purified from conditioned media on SP-sepharose; also called v526
B15: BMP-7 variant Y78T (ligand)
chain: B1 chain with T39K, Y78T
notes: In conditioned media; numbering on mature BMP-7
B16: BMP-7 variant Y128K (ligand)
chain: B1 chain with T39K, Y128K
notes: as for B15
B17: BMP-7 variant 504 (Y65N/S120D) (ligand)
chain: B1 chain with T39K, Y65N, S120D
notes: Purified, unlabeled variant; also called v504
B18: recombinant human BMP-7 (R&D Systems) (ligand)
chain: B1 chain with T39K
notes: Bought protein; also called wild type human BMP-7 (R&D Systems); wt
B19: BMP-7 variant 526 (K39S/S120D/R134E) (ligand)
chain: B1 chain with T39S, S120D, R134E
notes: Purified variant; also called v526
B20: BMP-7 variant 565 (Y65N/F93T/R129D) (ligand)
chain: B1 chain with T39K, Y65N, F93T, R129D
notes: Purified variant; also called v565

target: T8, ActRIIa receptor-Fc fusion (UniProt P27037 20-134, limits assumed); assay: ELISA-like, fixed volume of conditioned media, receptor-Fc
T8 construct: BMP receptor-Fc fusion, detected with anti-human IgG-HRP
T8 sequence (P27037 20-134 limits assumed): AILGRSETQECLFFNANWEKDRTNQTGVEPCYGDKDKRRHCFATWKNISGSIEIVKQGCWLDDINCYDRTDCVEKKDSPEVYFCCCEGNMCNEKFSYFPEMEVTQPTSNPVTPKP

| ActRIIa binding relative to wild type | Binder |
| --- | --- |
| 0.98 relative to wt = 1.0 | B1 |
| 1.17 relative to wt = 1.0 | B2 |
| 0.88 relative to wt = 1.0 | B3 |
| 0.99 relative to wt = 1.0 | B4 |
| 0.92 relative to wt = 1.0 | B5 |
| 0.99 relative to wt = 1.0 | B6 |
| 0.89 relative to wt = 1.0 | B7 |
| 1.02 relative to wt = 1.0 | B8 |
| 0.84 relative to wt = 1.0 | B9 |
| 0.53 relative to wt = 1.0 | B10 |

target: T1, BMPRII receptor-Fc fusion; assay: as above

| BMPRII binding relative to wild type | Binder |
| --- | --- |
| 0.75 relative to wt = 1.0 | B1 |
| 1.07 relative to wt = 1.0 | B2 |
| 0.72 relative to wt = 1.0 | B3 |
| 0.93 relative to wt = 1.0 | B4 |
| 0.85 relative to wt = 1.0 | B5 |
| 1 relative to wt = 1.0 | B6 |
| 0.5 relative to wt = 1.0 | B7 |
| 0.88 relative to wt = 1.0 | B8 |
| 0.26 relative to wt = 1.0 | B9 |
| 0.12 relative to wt = 1.0 | B10 |

target: T9, BMPRIa receptor-Fc fusion (UniProt P36894 24-152, limits assumed); assay: as above
T9 construct: BMP receptor-Fc fusion; also called ALK-3
T9 sequence (P36894 24-152 limits assumed): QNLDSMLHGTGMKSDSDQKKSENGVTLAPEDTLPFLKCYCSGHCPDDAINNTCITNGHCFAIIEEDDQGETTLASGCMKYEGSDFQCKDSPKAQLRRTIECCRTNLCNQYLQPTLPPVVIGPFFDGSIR

| BMPRIa binding relative to wild type | Binder |
| --- | --- |
| 0.74 relative to wt = 1.0 | B1 |
| 1.1 relative to wt = 1.0 | B2 |
| 0.67 relative to wt = 1.0 | B3 |
| 0.94 relative to wt = 1.0 | B4 |
| 0.68 relative to wt = 1.0 | B5 |
| 1.03 relative to wt = 1.0 | B6 |
| 0.54 relative to wt = 1.0 | B7 |
| 0.74 relative to wt = 1.0 | B8 |
| 0.54 relative to wt = 1.0 | B9 |
| 0.3 relative to wt = 1.0 | B10 |

target: T2, BMPRIb receptor-Fc fusion; assay: as above

| BMPRIb binding relative to wild type | Binder |
| --- | --- |
| 0.86 relative to wt = 1.0 | B1 |
| 1.15 relative to wt = 1.0 | B2 |
| 0.82 relative to wt = 1.0 | B3 |
| 0.9 relative to wt = 1.0 | B4 |
| 0.95 relative to wt = 1.0 | B5 |
| 1.02 relative to wt = 1.0 | B6 |
| 0.6 relative to wt = 1.0 | B7 |
| 0.87 relative to wt = 1.0 | B8 |
| 0.65 relative to wt = 1.0 | B9 |
| 0.35 relative to wt = 1.0 | B10 |

target: T3, BMPRIb Fc fusion (R&D Systems); assay: AlphaScreen competition against biotinylated Y65N/S120D BMP-7
Protocol: (§1) The Y65N/S120D variant of BMP-7 was also biotinylated for use in AlphaScreen assays using NHS-biotin. Bioactivity of the biotinylated protein was confirmed. AlphaScreen assays were performed to determine the binding affinity of selected BMP-7 variants for Fc fusions of the receptors BMPRIa, BMPRIb, ActRIIa, and BMPRII and the inhibitor noggin (R&D Systems). AlphaScreen assays were also performed to determine the affinity of selected variants for an anti-BMP-7 monoclonal antibody (R&D Systems mAb 3541). In all cases, 12-point binding curves were obtained in triplicate. Each data point corresponds to the luminescence produced from a solution comprising 10 uL of serially diluted BMP-7 variant, 10 uL receptor, inhibitor, or antibody, 10 uL biotinylated BMP-7, 10 uL AlphaScreen™ acceptor beads, and 10 uL AlphaScreen™ donor beads. Prism was used to calculate EC50 values for selected experiments.

| EC50 | Binder |
| --- | --- |
| 0.0499 µg/mL | B11 |
| 0.0185 µg/mL | B12 |
| 0.0224 µg/mL | B13 |
| 0.0363 µg/mL | B14 |

target: T10, ActRIIa Fc fusion (R&D Systems) (UniProt P27037 20-134, limits assumed); assay: as above
T10 construct: Bought receptor/Fc fusion; not shown: Fc part of the bought fusion
T10 sequence (P27037 20-134 limits assumed): as the sequence (P27037 20-134 limits assumed) above
Protocol: as §1

| EC50 | Binder |
| --- | --- |
| 0.107 µg/mL | B11 |
| 0.0475 µg/mL | B12 |
| 0.0424 µg/mL | B13 |
| 0.0445 µg/mL | B14 |

target: T4, BMPRII Fc fusion (R&D Systems); assay: as above
Protocol: as §1

| EC50 | Binder |
| --- | --- |
| 0.23 µg/mL | B11 |
| 0.222 µg/mL | B12 |
| 0.409 µg/mL | B13 |
| 0.139 µg/mL | B14 |

target: T5, noggin Fc fusion (R&D Systems); assay: as above
Protocol: as §1

| EC50 | Binder |
| --- | --- |
| 2.85 µg/mL | B11 |
| 3.4 µg/mL | B12 |
| 0.392 µg/mL | B13 |
| 16.7 µg/mL | B14 |

target: T3, BMPRIb Fc fusion (R&D Systems); assay: AlphaScreen competition; EC50 relative to wild type BMP-7 (R&D Systems)
Protocol: as §1

| Fold change vs. wt | Binder |
| --- | --- |
| 0.371 fold | B12 |
| 0.448 fold | B13 |
| 0.727 fold | B14 |

target: T10, ActRIIa Fc fusion (R&D Systems); assay: as above
Protocol: as §1

| Fold change vs. wt | Binder |
| --- | --- |
| 0.445 fold | B12 |
| 0.397 fold | B13 |
| 0.416 fold | B14 |

target: T4, BMPRII Fc fusion (R&D Systems); assay: as above
Protocol: as §1

| Fold change vs. wt | Binder |
| --- | --- |
| 0.969 fold | B12 |
| 1.78 fold | B13 |
| 0.607 fold | B14 |

target: T5, noggin Fc fusion (R&D Systems); assay: as above
Protocol: as §1

| Fold change vs. wt | Binder |
| --- | --- |
| 1.19 fold | B12 |
| 0.137 fold | B13 |
| 5.83 fold | B14 |

target: T11, ActRIIa receptor-Fc fusion (UniProt P27037 20-134, limits assumed); assay: ELISA-like plate assay, captured BMP-7 from conditioned media, receptor-Fc detection
T11 construct: BMP receptor-Fc fusion used at 5 ug/mL
T11 sequence (P27037 20-134 limits assumed): as above

| ActRIIa binding (relative to wild type = 1.0) | Binder |
| --- | --- |
| 1.63 relative to wild type | B15 |
| 1.11 relative to wild type | B16 |

target: T6, BMPRII receptor-Fc fusion; assay: as above

| BMPRII binding (relative to wild type = 1.0) | Binder |
| --- | --- |
| 2.66 relative to wild type | B15 |
| 1.78 relative to wild type | B16 |

target: T12, BMPRIa receptor-Fc fusion (UniProt P36894 24-152, limits assumed); assay: as above
T12 construct: also called ALK-3
T12 sequence (P36894 24-152 limits assumed): as the sequence (P36894 24-152 limits assumed) above

| BMPRIa binding (relative to wild type = 1.0) | Binder |
| --- | --- |
| 0.87 relative to wild type | B15 |
| 1.4 relative to wild type | B16 |

target: T7, BMPRIb receptor-Fc fusion; assay: as above

| BMPRIb binding (relative to wild type = 1.0) | Binder |
| --- | --- |
| 2.4 relative to wild type | B15 |
| 1.57 relative to wild type | B16 |

target: T13, anti-BMP-7 antibodies of the commercial ELISA (R&D Systems ELISA Duoset Cat#DY354); assay: sandwich ELISA (R&D Systems BMP7 ELISA Cat#DY354), BMP-7 protein titrated, % ELISA signal; the EC50 column carries no unit, the concentration axis is in ug/mL
T13 construct: also called antibody; ELISA antibody

| EC50 | Binder |
| --- | --- |
| 0.00821 µg/mL | B17 |
| 0.00112 µg/mL | B18 |
| 0.00119 µg/mL | B19 |
| 0.00688 µg/mL | B20 |
